Data from US20010052137A1, “Axin domain-like polypeptide inhibitors of glycogen synthase kinase 3 beta activity and activators of wnt signaling” (Trustees of the University of Pennsylvania, priority 2000, published 2001).
Entries after “also recorded” stand apart in the source; their conditions may differ.

B1: GID-1: Myc-tagged fragment, amino acid residues 277-545 of Xenopus axin (Xaxin) (protein)
chain: SHCAGSNRRLSDGREFRPGTWREPVNPYYVNTGYAGAPVTSANDSEQQSMSSDADTMSLTDSSVDGIPPYRLRKHYRREMQESANANGRGPLPHIPRTYHMPKDIHVDPEKFAAELISRLEGVLRDREAEQKLEERLKRVRAEEEGDDGDVSSGPSVISHKLPSGPPMHHFNSRYSETGCVGMQIRDAHEENPESILDEHVQRVMKTPGCQSPGTGRHSPKSRSPDGHLSKTLPGSLGTMQTGHGKHSSKSTAKVDSGNLHHHKHVYHH
modifications: left off: small tags and cut ends
B2: GID-2: Myc-tagged fragment, Xaxin amino acid residues 320-429 (protein)
chain: DSEQQSMSSDADTMSLTDSSVDGIPPYRLRKHYRREMQESANANGRGPLPHIPRTYHMPKDIHVDPEKFAAELISRLEGVLRDREAEQKLEERLKRVRAEEEGDDGDVSS
modifications: left off: small tags and cut ends
B3: GID-4: Myc-tagged fragment, Xaxin amino acid residues 350-429 (protein)
chain: KHYRREMQESANANGRGPLPHIPRTYHMPKDIHVDPEKFAAELISRLEGVLRDREAEQKLEERLKRVRAEEEGDDGDVSS
modifications: left off: small tags and cut ends
B4: deltaRGS: Xaxin having amino acid residues 80-290 (RGS domain) deleted (protein)
chain: MSVKGKGFPLDLGGSFTEDAPRPPVPGEEGELITTDQRPFSHTYYSLKNDGIKNETSTATPRRPDLDLGYEPEGSASPTPREFRPGTWREPVNPYYVNTGYAGAPVTSANDSEQQSMSSDADTMSLTDSSVDGIPPYRLRKHYRREMQESANANGRGPLPHIPRTYHMPKDIHVDPEKFAAELISRLEGVLRDREAEQKLEERLKRVRAEEEGDDGDVSSGPSVISHKLPSGPPMHHFNSRYSETGCVGMQIRDAHEENPESILDEHVQRVMKTPGCQSPGTGRHSPKSRSPDGHLSKTLPGSLGTMQTGHGKHSSKSTAKVDSGNLHHHKHVYHHVHHHGGVKPKEQIDGESTQRVQTNFPWNVESHNYATKSRNYAESMGMAPNPMDSLAYSGKVSMLSKRNAKKADLGKSESASHEMPVVPEDSERHQKILQWIMEGEKEIIRHKKSNHSSSSAKKQPPTELARPLSIERPGAVHPWVSAQLRNVVQPSHPFIQDPTMPPNPAPNPLTQLVSKPGARLEEEEKKAAKMPQKQRLKPQKKNVSAPSQPCDNIVVAYYFCGEPIPYRTMVKGRVVTLGQFKELLTKKGNYRYYFKKVSDEFDCGVVFEEVREDDMILPIYEEKIIGQVEKID
modifications: left off: small tags and cut ends
notes: Xaxin having amino acid residues 80-290 (RGS domain) deleted
B5: deltaDIX: Xaxin having amino acid residues 778-842 deleted (protein)
chain: MSVKGKGFPLDLGGSFTEDAPRPPVPGEEGELITTDQRPFSHTYYSLKNDGIKNETSTATPRRPDLDLGYEPEGSASPTPPYLKWAESLHSLLDDQDGIHLFRTFLQQENCADLLDFWFACSGFRKLEPNDSKVEKRLKLAKAIYKKYVLDSNGIVSRQIKPATKSFIKDCVLRQQIDPAMFDQAQMEIQSMMEDNTYPVFLKSDIYLEYTTIGGESPKNYSDQSSGSGTGKGPSGYLPTLNEDEEWRCDQGGEHERERECIPSSLFSQKLALDSSSHCAGSNRRLSDGREFRPGTWREPVNPYYVNTGYAGAPVTSANDSEQQSMSSDADTMSLTDSSVDGIPPYRLRKHYRREMQESANANGRGPLPHIPRTYHMPKDIHVDPEKFAAELISRLEGVLRDREAEQKLEERLKRVRAEEEGDDGDVSSGPSVISHKLPSGPPMHHFNSRYSETGCVGMQIRDAHEENPESILDEHVQRVMKTPGCQSPGTGRHSPKSRSPDGHLSKTLPGSLGTMQTGHGKHSSKSTAKVDSGNLHHHKHVYHHVHHHGGVKPKEQIDGESTQRVQTNFPWNVESHNYATKSRNYAESMGMAPNPMDSLAYSGKVSMLSKRNAKKADLGKSESASHEMPVVPEDSERHQKILQWIMEGEKEIIRHKKSNHSSSSAKKQPPTELARPLSIERPGAVHPWVSAQLRNVVQPSHPFIQDPTMPPNPAPNPLTQLVSKPGARLEEEEKKAAKMPQKQRLKPQKKNVSAPSQPCDNIVVAYYFCGEPIPYRT
modifications: left off: small tags and cut ends
notes: Xaxin having amino acid residues 778-842 deleted
B6: deltaGID: Xaxin having amino acid residues 324-504 deleted (protein)
chain: MSVKGKGFPLDLGGSFTEDAPRPPVPGEEGELITTDQRPFSHTYYSLKNDGIKNETSTATPRRPDLDLGYEPEGSASPTPPYLKWAESLHSLLDDQDGIHLFRTFLQQENCADLLDFWFACSGFRKLEPNDSKVEKRLKLAKAIYKKYVLDSNGIVSRQIKPATKSFIKDCVLRQQIDPAMFDQAQMEIQSMMEDNTYPVFLKSDIYLEYTTIGGESPKNYSDQSSGSGTGKGPSGYLPTLNEDEEWRCDQGGEHERERECIPSSLFSQKLALDSSSHCAGSNRRLSDGREFRPGTWREPVNPYYVNTGYAGAPVTSANDSEQQHLSKTLPGSLGTMQTGHGKHSSKSTAKVDSGNLHHHKHVYHHVHHHGGVKPKEQIDGESTQRVQTNFPWNVESHNYATKSRNYAESMGMAPNPMDSLAYSGKVSMLSKRNAKKADLGKSESASHEMPVVPEDSERHQKILQWIMEGEKEIIRHKKSNHSSSSAKKQPPTELARPLSIERPGAVHPWVSAQLRNVVQPSHPFIQDPTMPPNPAPNPLTQLVSKPGARLEEEEKKAAKMPQKQRLKPQKKNVSAPSQPCDNIVVAYYFCGEPIPYRTMVKGRVVTLGQFKELLTKKGNYRYYFKKVSDEFDCGVVFEEVREDDMILPIYEEKIIGQVEKID
modifications: left off: small tags and cut ends
notes: Xaxin having amino acid residues 324-504 deleted

What follows are molecules tested on GSK-3 beta (assay: Co-immunoprecipitation of GSK-3 beta with Myc-tagged Xaxin constructs in Xenopus oocytes). Conditions: Myc-tagged construct co-expressed with GSK-3 beta in Xenopus oocytes; anti-Myc IP, anti-GSK-3 beta blot.
Type: binding

Molecule	binding with GSK-3 beta (co-immunoprecipitation)
B1	bound
B2	bound
B3	bound
B4	bound
B5	bound
B6	did not bind

What follows are molecules tested on GSK-3 beta (assay: In ovo tau phosphorylation assay: GSK-3 beta and Xaxin constructs co-expressed in Xenopus oocytes). Conditions: construct co-expressed with GSK-3 beta in Xenopus oocytes; tau microinjected; PHF-1 immunoblot.
Type: cell-based
Method: Stage VI Xenopus oocytes were isolated by collagenase treatment (Smith et al., 1994, Meth. Cell Biol. 36:45-58) and were injected with mRNA prepared by in vitro transcription (mMessage Machine™; Ambion, Austin, Tex.). 10 nanoliters of mRNA (containing 1-2 nanograms per nanoliter) was injected for each construct (unless otherwise specified), and the injected oocytes were incubated for 16 hours at 18° C. To analyze the effects of Xaxin constructs on dorsal-ventral pattern formation, Xenopus embryos were injected with 10 nanoliters of mRNA (0.1-0.2 nanogram per nanoliter) into one dorsal or ventral cell of a 4 cell embryo and dorsal axes were assessed at the tadpole stage. For Xaxin co-immunoprecipitation, fertilized eggs were injected with 10 nanoliters of Xaxin tagged with Myc, with hemagglutinin, or with both Myc and hemagglutinin (1 nanogram per nanoliter) and harvested at the blastula stage (stage 8).
In ovo phosphorylation of tau by GSK-3 beta was performed by microinjection of tau protein into oocytes expressing GSK-3 beta and Xaxin constructs. After 90 minutes, oocytes were homogenized and tau phosphorylation was analyzed in western blots using phospho-specific antibodies as described (Hedgepeth et al., 1997, Develop. Biol. 185:82-91). In vitro assays for GSK-3 beta activity were performed as described (Klein et al., 1996, Proc. Natl. Acad. Sci. USA 93:8455-8459). Recombinant GID-2/his protein (described below) was purified by affinity chromatography and added to in vitro assays at selected concentrations.
In the experiments presented in this example, a tau phosphorylation assay (described in Hedgepeth et al., 1997, Develop. Biol. 185:82-91) was used to examine the activity of GSK-3 beta in Xenopus oocytes in the presence of full length axin and axin deletion mutants. […] Furthermore, GSK-3 beta-dependent tau phosphorylation occurs in oocytes at the same sites (tau serine residues 396 and 404) that are phosphorylated by GSK-3 beta in vitro and occurs with similarly rapid kinetics.
GSK-3 beta was expressed in oocytes together with Myc-tagged full length Xaxin or with the amino-terminal (amino acid residues 63-288), GID-1 (amino acid residues 277-545), or carboxyl-terminal (amino acid residues 429-713) fragments of Xaxin, as depicted in FIG. 1A. Purified tau protein was then microinjected into the oocytes, and phosphorylation of tau was measured by immunoblotting using antibody PHF-1 or with antibodies that detect all (i.e. phosphorylated and non-phosphorylated) forms of tau.
In order to identify the domain of axin necessary for GSK-3 beta binding, multiple Myc-tagged GID deletion constructs (shown diagrammatically in FIG. 3A) were individually expressed in Xenopus oocytes in which GSK-3 beta was also expressed. Tau protein was microinjected into the oocytes, and immunoblotting was performed using phosphorylation-state-specific tau antibodies. A parallel group of oocytes expressing GSK-3 beta and the Myc-tagged GID deletion constructs were lysed, and GID proteins were immunoprecipitated using a Myc-specific antibody. The presence or absence of GSK-3 beta in GID immunoprecipitates was detected using GSK-3 beta-specific antibodies. GID deletion constructs which included amino acid residues 380-404 of Xaxin (i.e. constructs GID-1, GID-2, GID-4, GID-5, and GID-6) bound GSK-3 beta and inhibited GSK-3 beta mediated tau phosphorylation, as indicated in FIG. 3A. […] However, changing leucine residue 392 in FIG. 3B to proline abolishes its activity.

Molecule	GSK-3 beta-mediated tau phosphorylation (GSK-3 beta activity)
B1	virtually complete inhibition; also recorded: inhibited
B2	inhibited
B3	inhibited
B4	inhibited
B5	partially inhibited
B6	no discernible effect

The molecules below were run on Xenopus embryos (assay: Dorsal axis duplication / dorsalization in Xenopus embryos after mRNA injection). Conditions: construct expressed in embryos, injection side not stated.
Type: in vivo

Molecule	effect on axial development / axis formation
B1	complete axis duplication
B4	complete axis duplication
B6	infrequent ectopic posterior axis formation

Same assay, conditions: construct(s) expressed in Xenopus embryos

Molecule	embryos that exhibited dorsalization [%]
B4	86
